In PMC9482650, “Quantitative fragmentomics allow affinity mapping of interactomes” (Nature Communications, 2022):

T1: PDZD2_2, O15018
T1 sequence (O15018 329-429, limits assumed, looked up): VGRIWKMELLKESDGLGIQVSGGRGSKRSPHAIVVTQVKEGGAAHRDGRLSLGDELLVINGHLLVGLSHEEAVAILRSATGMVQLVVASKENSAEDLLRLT

T2: DLG3_1, Q92796
T2 sequence (Q92796 125-227, limits assumed, looked up): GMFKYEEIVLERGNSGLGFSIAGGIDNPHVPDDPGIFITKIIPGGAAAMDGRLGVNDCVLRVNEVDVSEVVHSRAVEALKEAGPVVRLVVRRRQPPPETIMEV

T3: NHERF3_1, Q5T2W1
T3 sequence (Q5T2W1 4-100, limits assumed, looked up): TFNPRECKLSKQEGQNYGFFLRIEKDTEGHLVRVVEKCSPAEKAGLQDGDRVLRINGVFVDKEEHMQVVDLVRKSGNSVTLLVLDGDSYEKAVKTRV

T4: APBA2_2, Q99767
T4 sequence (Q99767 654-744, limits assumed, looked up): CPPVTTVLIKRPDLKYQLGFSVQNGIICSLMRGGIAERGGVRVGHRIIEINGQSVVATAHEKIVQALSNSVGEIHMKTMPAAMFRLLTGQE

T5: GRIP1_4, Q9Y3R0
T5 sequence (Q9Y3R0 467-571, limits assumed, looked up): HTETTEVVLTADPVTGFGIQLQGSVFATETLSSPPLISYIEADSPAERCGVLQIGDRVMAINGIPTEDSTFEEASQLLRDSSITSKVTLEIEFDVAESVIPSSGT

T6: SNTG1, Q9NSN8
T6 sequence (Q9NSN8 52-150, limits assumed, looked up): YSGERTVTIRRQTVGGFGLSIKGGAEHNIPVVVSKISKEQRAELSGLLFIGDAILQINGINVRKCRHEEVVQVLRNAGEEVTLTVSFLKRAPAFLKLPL

T7: DVL3, Q92997
T7 sequence (Q92997 244-331, limits assumed, looked up): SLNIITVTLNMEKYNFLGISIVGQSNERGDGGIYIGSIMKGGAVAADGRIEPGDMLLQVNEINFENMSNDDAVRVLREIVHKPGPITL

T8: GRIP1_3, Q9Y3R0
T8 sequence (Q9Y3R0 247-346, limits assumed, looked up): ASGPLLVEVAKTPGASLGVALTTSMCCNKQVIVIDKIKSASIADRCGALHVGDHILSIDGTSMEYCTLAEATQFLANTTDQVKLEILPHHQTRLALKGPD

T9: SHANK1, Q9Y566
T9 sequence (Q9Y566 658-767, limits assumed, looked up): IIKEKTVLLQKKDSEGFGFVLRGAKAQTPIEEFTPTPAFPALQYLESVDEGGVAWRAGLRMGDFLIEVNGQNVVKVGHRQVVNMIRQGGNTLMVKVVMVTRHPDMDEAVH

B1: KIR3DL3, Q8N743 (peptide)
chain: PKTPPTDTSV
B2: SLC1A5, Q15758 (peptide)
chain: TVASEKESVM
B3: KCNT2, Q6UVM3 (peptide)
chain: GQDSREETQL
B4: VANGL1, Q8TAA9 (peptide)
chain: VLRLQSETSV
B5: TJP2, Q9UDY2 (peptide)
chain: QSARYRDTEL

How the values were obtained:
Assay in all cases: holdup assay
Parameters in all cases: key: below the threshold = too weak to quantify, mostly under pKd 3.1 to 4
Conditions in all cases: plain residues with an end cap or a label only (N-terminal biotin on a linker: ttds)
PDZD2_2, O15018 = target: T1, PDZD2_2, O15018
LNX1_1, Q8TBB1 = target: LNX1_1, Q8TBB1
Chain of LNX1_1, Q8TBB1 (Q8TBB1 261-371): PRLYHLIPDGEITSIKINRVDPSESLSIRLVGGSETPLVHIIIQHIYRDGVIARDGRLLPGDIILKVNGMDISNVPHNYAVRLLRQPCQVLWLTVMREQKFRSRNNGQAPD

NHERF4_2, Q86UT5 = target: NHERF4_2, Q86UT5
Chain of NHERF4_2, Q86UT5 (Q86UT5 220-308): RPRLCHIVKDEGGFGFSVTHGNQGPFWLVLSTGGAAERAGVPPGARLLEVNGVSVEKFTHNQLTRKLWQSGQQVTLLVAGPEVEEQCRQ

DLG3_1, Q92796 = target: T2, DLG3_1, Q92796
NHERF3_1, Q5T2W1 = target: T3, NHERF3_1, Q5T2W1
MAGI1_2, Q96QZ7 = target: MAGI1_2, Q96QZ7
Chain of MAGI1_2, Q96QZ7 (Q96QZ7 456-580): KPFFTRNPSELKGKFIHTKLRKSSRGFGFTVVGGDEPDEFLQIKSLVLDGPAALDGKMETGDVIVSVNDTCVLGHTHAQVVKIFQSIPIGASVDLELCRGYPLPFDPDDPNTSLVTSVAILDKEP

APBA2_2, Q99767 = target: T4, APBA2_2, Q99767
Inadl_2, Q8NI35 = target: Inadl_2, Q8NI35
Chain of Inadl_2, Q8NI35 (Q8NI35 238-335): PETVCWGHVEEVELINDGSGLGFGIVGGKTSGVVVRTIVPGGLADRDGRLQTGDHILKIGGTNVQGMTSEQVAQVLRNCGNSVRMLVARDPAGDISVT

GRIP1_4, Q9Y3R0 = target: T5, GRIP1_4, Q9Y3R0
HTRA2, O43464 = target: HTRA2, O43464
Chain of HTRA2, O43464 (O43464 355-458): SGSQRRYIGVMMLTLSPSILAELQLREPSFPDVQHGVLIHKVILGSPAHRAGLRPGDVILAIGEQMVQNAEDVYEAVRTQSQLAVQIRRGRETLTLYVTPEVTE

TJP2_1, Q9UDY2 = target: TJP2_1, Q9UDY2
Chain of TJP2_1, Q9UDY2 (Q9UDY2 24-128): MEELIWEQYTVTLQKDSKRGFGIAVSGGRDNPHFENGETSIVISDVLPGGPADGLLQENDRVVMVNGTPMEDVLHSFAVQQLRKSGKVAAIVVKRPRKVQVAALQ

IL16_1, Q14005 = target: IL16_1, Q14005
Chain of IL16_1, Q14005 (Q14005 210-306): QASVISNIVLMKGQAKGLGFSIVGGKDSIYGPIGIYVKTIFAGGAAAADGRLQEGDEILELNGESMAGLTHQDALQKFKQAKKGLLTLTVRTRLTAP

SNTG1, Q9NSN8 = target: T6, SNTG1, Q9NSN8
DLG5_1, Q8TDM6 = target: DLG5_1, Q8TDM6
Chain of DLG5_1, Q8TDM6 (Q8TDM6 617-713): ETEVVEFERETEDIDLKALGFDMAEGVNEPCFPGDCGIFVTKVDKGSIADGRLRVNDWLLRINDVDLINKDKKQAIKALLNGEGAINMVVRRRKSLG

FRMPD3, Q5JV73 = target: FRMPD3, Q5JV73
Chain of FRMPD3, Q5JV73 (Q5JV73 12-100): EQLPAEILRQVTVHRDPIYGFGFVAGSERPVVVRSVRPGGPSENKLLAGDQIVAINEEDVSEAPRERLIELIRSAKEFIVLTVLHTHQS

Inadl_4, Q8NI35 = target: Inadl_4, Q8NI35
Chain of Inadl_4, Q8NI35 (Q8NI35 547-651): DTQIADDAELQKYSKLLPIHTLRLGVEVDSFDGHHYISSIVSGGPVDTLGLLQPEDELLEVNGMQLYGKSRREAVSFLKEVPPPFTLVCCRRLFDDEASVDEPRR

DVL3, Q92997 = target: T7, DVL3, Q92997
FRMPD2_2, Q68DX3 = target: FRMPD2_2, Q68DX3
Chain of FRMPD2_2, Q68DX3 (Q68DX3 944-1038): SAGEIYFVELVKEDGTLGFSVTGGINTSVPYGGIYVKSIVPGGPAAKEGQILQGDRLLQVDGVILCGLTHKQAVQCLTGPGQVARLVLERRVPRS

LDB3, O75112 = target: LDB3, O75112
Chain of LDB3, O75112 (O75112 1-94): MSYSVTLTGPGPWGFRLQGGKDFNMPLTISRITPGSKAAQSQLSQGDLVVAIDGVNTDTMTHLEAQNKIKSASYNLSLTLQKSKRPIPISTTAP

MAGI2_5, Q86UL8 = target: MAGI2_5, Q86UL8
Chain of MAGI2_5, Q86UL8 (Q86UL8 915-1017): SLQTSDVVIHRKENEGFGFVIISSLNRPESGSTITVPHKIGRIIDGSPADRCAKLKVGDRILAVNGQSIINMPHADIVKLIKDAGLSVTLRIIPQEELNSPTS

GRIP1_3, Q9Y3R0 = target: T8, GRIP1_3, Q9Y3R0
GOPC, Q9HD26 = target: GOPC, Q9HD26
TJP1_2, Q07157 = target: TJP1_2, Q07157
Chain of TJP1_2, Q07157 (Q07157 181-274): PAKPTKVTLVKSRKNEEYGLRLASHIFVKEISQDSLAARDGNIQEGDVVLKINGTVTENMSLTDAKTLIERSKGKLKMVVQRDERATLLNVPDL

HTRA1, Q92743 = target: HTRA1, Q92743
Chain of HTRA1, Q92743 (Q92743 360-477): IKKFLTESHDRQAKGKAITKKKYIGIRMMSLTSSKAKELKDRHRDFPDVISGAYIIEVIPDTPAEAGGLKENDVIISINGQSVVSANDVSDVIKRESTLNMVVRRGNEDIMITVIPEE

GRIP2_6, Q9C0E4 = target: GRIP2_6, Q9C0E4
Chain of GRIP2_6, Q9C0E4 (Q9C0E4 648-740): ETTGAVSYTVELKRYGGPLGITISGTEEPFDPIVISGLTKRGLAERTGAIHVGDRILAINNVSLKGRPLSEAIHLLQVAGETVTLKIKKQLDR

PDLIM1, O00151 = target: PDLIM1, O00151
Chain of PDLIM1, O00151 (O00151 1-87): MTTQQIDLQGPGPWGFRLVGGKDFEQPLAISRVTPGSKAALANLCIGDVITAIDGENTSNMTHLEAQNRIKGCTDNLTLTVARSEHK

GRIP2_7, Q9C0E4 = target: GRIP2_7, Q9C0E4
Chain of GRIP2_7, Q9C0E4 (Q9C0E4 934-1023): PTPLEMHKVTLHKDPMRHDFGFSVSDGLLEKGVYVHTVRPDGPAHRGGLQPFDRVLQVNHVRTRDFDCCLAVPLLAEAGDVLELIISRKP

SHANK1, Q9Y566 = target: T9, SHANK1, Q9Y566

Row | Binder | pKd (PDZD2_2, O15018) | pKd (LNX1_1, Q8TBB1) | pKd (NHERF4_2, Q86UT5) | pKd (DLG3_1, Q92796) | pKd (NHERF3_1, Q5T2W1) | pKd (MAGI1_2, Q96QZ7) | pKd (APBA2_2, Q99767) | pKd (Inadl_2, Q8NI35) | pKd (GRIP1_4, Q9Y3R0) | pKd (HTRA2, O43464) | pKd (TJP2_1, Q9UDY2) | pKd (IL16_1, Q14005) | pKd (SNTG1, Q9NSN8) | pKd (DLG5_1, Q8TDM6) | pKd (FRMPD3, Q5JV73) | pKd (Inadl_4, Q8NI35) | pKd (DVL3, Q92997) | pKd (FRMPD2_2, Q68DX3) | pKd (LDB3, O75112) | pKd (MAGI2_5, Q86UL8) | other results
1 | B1 | 4 | below the threshold | below the threshold | 3.69 | below the threshold | below the threshold | below the threshold | below the threshold | below the threshold | below the threshold | below the threshold | below the threshold | below the threshold | below the threshold | below the threshold | below the threshold | below the threshold | below the threshold | below the threshold | below the threshold | pKd (GRIP1_3, Q9Y3R0): below the threshold; pKd (GOPC, Q9HD26): 3.5; pKd (TJP1_2, Q07157): below the threshold; pKd (HTRA1, Q92743): below the threshold; pKd (GRIP2_6, Q9C0E4): below the threshold; pKd (PDLIM1, O00151): below the threshold; pKd (GRIP2_7, Q9C0E4): below the threshold; pKd (SHANK1, Q9Y566): below the threshold
2 | B2 | below the threshold | below the threshold | below the threshold | below the threshold | 4.42 | below the threshold | below the threshold | below the threshold | below the threshold | below the threshold | below the threshold | below the threshold | below the threshold | below the threshold | below the threshold | below the threshold | below the threshold | below the threshold | below the threshold | below the threshold | pKd (GRIP1_3, Q9Y3R0): below the threshold; pKd (GOPC, Q9HD26): 3.76; pKd (TJP1_2, Q07157): below the threshold; pKd (HTRA1, Q92743): 3.86; pKd (GRIP2_6, Q9C0E4): below the threshold; pKd (PDLIM1, O00151): below the threshold; pKd (GRIP2_7, Q9C0E4): below the threshold; pKd (SHANK1, Q9Y566): below the threshold
3 | B3 | below the threshold | below the threshold | below the threshold | below the threshold | 5.47 | 4.5 | below the threshold | below the threshold | below the threshold | below the threshold | below the threshold | below the threshold | 3.73 | below the threshold | below the threshold | below the threshold | below the threshold | below the threshold | below the threshold | 4.37 | pKd (GRIP1_3, Q9Y3R0): below the threshold; pKd (GOPC, Q9HD26): 4.01; pKd (TJP1_2, Q07157): below the threshold; pKd (HTRA1, Q92743): below the threshold; pKd (GRIP2_6, Q9C0E4): below the threshold; pKd (PDLIM1, O00151): below the threshold; pKd (GRIP2_7, Q9C0E4): below the threshold; pKd (SHANK1, Q9Y566): 4.67
4 | B4 | 4.12 | below the threshold | below the threshold | 3.96 | 3.98 | 4.37 | below the threshold | below the threshold | below the threshold | below the threshold | below the threshold | 3.7 | 4.67 | below the threshold | below the threshold | below the threshold | below the threshold | 3.72 | below the threshold | 4 | pKd (GRIP1_3, Q9Y3R0): below the threshold; pKd (GOPC, Q9HD26): below the threshold; pKd (TJP1_2, Q07157): below the threshold; pKd (HTRA1, Q92743): below the threshold; pKd (GRIP2_6, Q9C0E4): below the threshold; pKd (PDLIM1, O00151): below the threshold; pKd (GRIP2_7, Q9C0E4): below the threshold; pKd (SHANK1, Q9Y566): 3.77
5 | B5 | below the threshold | 3.58 | below the threshold | below the threshold | 4.33 | below the threshold | below the threshold | below the threshold | below the threshold | below the threshold | below the threshold | below the threshold | 3.73 | below the threshold | below the threshold | below the threshold | below the threshold | below the threshold | below the threshold | 3.48 | pKd (GRIP1_3, Q9Y3R0): below the threshold; pKd (GOPC, Q9HD26): below the threshold; pKd (TJP1_2, Q07157): below the threshold; pKd (HTRA1, Q92743): below the threshold; pKd (GRIP2_6, Q9C0E4): below the threshold; pKd (PDLIM1, O00151): 3.69; pKd (GRIP2_7, Q9C0E4): 3.49; pKd (SHANK1, Q9Y566): 3.74
